Sequences and labels used below:
B1: peptide 26 (peptide 2, Leu10 to isoleucine) (peptide)
peptide: RCFRLPCRQIRCRW-NH2
modifications: linker 2-7-12 via TATA; N-terminus assumed
SMILES: CC[C@H](C)[C@@H]1NC(=O)[C@H](CCC(N)=O)NC(=O)[C@H](CCCNC(=N)N)NC(=O)[C@@H]2CSCCC(=O)N3CN(CN(C3)C(=O)CCSC[C@H](NC(=O)[C@@H](N)CCCNC(=N)N)C(=O)N[C@@H](Cc3ccccc3)C(=O)N[C@@H](CCCNC(=N)N)C(=O)N[C@@H](CC(C)C)C(=O)N3CCC[C@H]3C(=O)N2)C(=O)CCSC[C@@H](C(=O)N[C@@H](CCCNC(=N)N)C(=O)N[C@@H](Cc2c[nH]c3ccccc23)C(N)=O)NC(=O)[C@H](CCCNC(=N)N)NC1=O
B2: peptide 41 (peptide 2, Arg4 to 4-guanidinophenylalanine) (peptide)
peptide: H-RCF[Phe(4-guanidino)]LPCRQLRCRW-NH2
modifications: linker 2-7-12 via TATA
SMILES: CC(C)C[C@@H]1NC(=O)[C@H](CCC(N)=O)NC(=O)[C@H](CCCNC(=N)N)NC(=O)[C@@H]2CSCCC(=O)N3CN(CN(C3)C(=O)CCSC[C@H](NC(=O)[C@@H](N)CCCNC(=N)N)C(=O)N[C@@H](Cc3ccccc3)C(=O)N[C@@H](Cc3ccc(NC(=N)N)cc3)C(=O)N[C@@H](CC(C)C)C(=O)N3CCC[C@H]3C(=O)N2)C(=O)CCSC[C@@H](C(=O)N[C@@H](CCCNC(=N)N)C(=O)N[C@@H](Cc2c[nH]c3ccccc23)C(N)=O)NC(=O)[C@H](CCCNC(=N)N)NC1=O
B3: peptide 6 (peptide 2, Phe3 to alanine) (peptide)
peptide: RCARLPCRQLRCRW-NH2
modifications: linker 2-7-12 via TATA; N-terminus assumed
SMILES: CC(C)C[C@@H]1NC(=O)[C@H](CCC(N)=O)NC(=O)[C@H](CCCNC(=N)N)NC(=O)[C@@H]2CSCCC(=O)N3CN(CN(C3)C(=O)CCSC[C@H](NC(=O)[C@@H](N)CCCNC(=N)N)C(=O)N[C@@H](C)C(=O)N[C@@H](CCCNC(=N)N)C(=O)N[C@@H](CC(C)C)C(=O)N3CCC[C@H]3C(=O)N2)C(=O)CCSC[C@@H](C(=O)N[C@@H](CCCNC(=N)N)C(=O)N[C@@H](Cc2c[nH]c3ccccc23)C(N)=O)NC(=O)[C@H](CCCNC(=N)N)NC1=O
B4: peptide 7 (peptide 2, Phe3 to valine) (peptide)
peptide: RCVRLPCRQLRCRW-NH2
modifications: linker 2-7-12 via TATA; N-terminus assumed
SMILES: CC(C)C[C@@H]1NC(=O)[C@H](CCC(N)=O)NC(=O)[C@H](CCCNC(=N)N)NC(=O)[C@@H]2CSCCC(=O)N3CN(CN(C3)C(=O)CCSC[C@H](NC(=O)[C@@H](N)CCCNC(=N)N)C(=O)N[C@@H](C(C)C)C(=O)N[C@@H](CCCNC(=N)N)C(=O)N[C@@H](CC(C)C)C(=O)N3CCC[C@H]3C(=O)N2)C(=O)CCSC[C@@H](C(=O)N[C@@H](CCCNC(=N)N)C(=O)N[C@@H](Cc2c[nH]c3ccccc23)C(N)=O)NC(=O)[C@H](CCCNC(=N)N)NC1=O
B5: peptide 4 (peptide 2, Phe3 to tyrosine) (peptide)
peptide: RCYRLPCRQLRCRW-NH2
modifications: linker 2-7-12 via TATA; N-terminus assumed
SMILES: CC(C)C[C@@H]1NC(=O)[C@H](CCC(N)=O)NC(=O)[C@H](CCCNC(=N)N)NC(=O)[C@@H]2CSCCC(=O)N3CN(CN(C3)C(=O)CCSC[C@H](NC(=O)[C@@H](N)CCCNC(=N)N)C(=O)N[C@@H](Cc3ccc(O)cc3)C(=O)N[C@@H](CCCNC(=N)N)C(=O)N[C@@H](CC(C)C)C(=O)N3CCC[C@H]3C(=O)N2)C(=O)CCSC[C@@H](C(=O)N[C@@H](CCCNC(=N)N)C(=O)N[C@@H](Cc2c[nH]c3ccccc23)C(N)=O)NC(=O)[C@H](CCCNC(=N)N)NC1=O
B6: peptide 8 (peptide 2, Phe3 to isoleucine) (peptide)
peptide: RCIRLPCRQLRCRW-NH2
modifications: linker 2-7-12 via TATA; N-terminus assumed
SMILES: CC[C@H](C)[C@@H]1NC(=O)[C@@H](NC(=O)[C@@H](N)CCCNC(=N)N)CSCCC(=O)N2CN3CN(C2)C(=O)CCSC[C@H](NC(=O)[C@@H]2CCCN2C(=O)[C@H](CC(C)C)NC(=O)[C@H](CCCNC(=N)N)NC1=O)C(=O)N[C@@H](CCCNC(=N)N)C(=O)N[C@@H](CCC(N)=O)C(=O)N[C@@H](CC(C)C)C(=O)N[C@@H](CCCNC(=N)N)C(=O)N[C@H](C(=O)N[C@@H](CCCNC(=N)N)C(=O)N[C@@H](Cc1c[nH]c2ccccc12)C(N)=O)CSCCC3=O
B7: peptide 65 (FXII618, Arg1 to valine) (peptide)
peptide: VCFRLPCRQLRCR-NH2
modifications: linker 2-7-12 via TATA; N-terminus assumed
SMILES: CC(C)C[C@@H]1NC(=O)[C@H](CCC(N)=O)NC(=O)[C@H](CCCNC(=N)N)NC(=O)[C@@H]2CSCCC(=O)N3CN(CN(C3)C(=O)CCSC[C@H](NC(=O)[C@@H](N)C(C)C)C(=O)N[C@@H](Cc3ccccc3)C(=O)N[C@@H](CCCNC(=N)N)C(=O)N[C@@H](CC(C)C)C(=O)N3CCC[C@H]3C(=O)N2)C(=O)CCSC[C@@H](C(=O)N[C@@H](CCCNC(=N)N)C(N)=O)NC(=O)[C@H](CCCNC(=N)N)NC1=O
B8: peptide 66 (FXII618, Arg1 to alanine) (peptide)
peptide: ACFRLPCRQLRCR-NH2
modifications: linker 2-7-12 via TATA; N-terminus assumed
SMILES: CC(C)C[C@@H]1NC(=O)[C@H](CCC(N)=O)NC(=O)[C@H](CCCNC(=N)N)NC(=O)[C@@H]2CSCCC(=O)N3CN(CN(C3)C(=O)CCSC[C@@H](C(=O)N[C@@H](CCCNC(=N)N)C(N)=O)NC(=O)[C@H](CCCNC(=N)N)NC1=O)C(=O)CCSC[C@H](NC(=O)[C@H](C)N)C(=O)N[C@@H](Cc1ccccc1)C(=O)N[C@@H](CCCNC(=N)N)C(=O)N[C@@H](CC(C)C)C(=O)N1CCC[C@H]1C(=O)N2
B9: FXII618 variant with R in position 1 replaced by homolysine (peptide)
peptide: [hLys]CFRLPCRQLRCR-NH2
modifications: linker 2-7-12 via TATA; N-terminus assumed
SMILES: CC(C)C[C@@H]1NC(=O)[C@H](CCC(N)=O)NC(=O)[C@H](CCCNC(=N)N)NC(=O)[C@@H]2CSCCC(=O)N3CN(CN(C3)C(=O)CCSC[C@H](NC(=O)[C@@H](N)CCCCCN)C(=O)N[C@@H](Cc3ccccc3)C(=O)N[C@@H](CCCNC(=N)N)C(=O)N[C@@H](CC(C)C)C(=O)N3CCC[C@H]3C(=O)N2)C(=O)CCSC[C@@H](C(=O)N[C@@H](CCCNC(=N)N)C(N)=O)NC(=O)[C@H](CCCNC(=N)N)NC1=O
B10: peptide 64 (FXII618, Arg1 to isoleucine) (peptide)
peptide: ICFRLPCRQLRCR-NH2
modifications: linker 2-7-12 via TATA; N-terminus assumed
SMILES: CC[C@H](C)[C@H](N)C(=O)N[C@H]1CSCCC(=O)N2CN3CN(C2)C(=O)CCSC[C@H](NC(=O)[C@@H]2CCCN2C(=O)[C@H](CC(C)C)NC(=O)[C@H](CCCNC(=N)N)NC(=O)[C@H](Cc2ccccc2)NC1=O)C(=O)N[C@@H](CCCNC(=N)N)C(=O)N[C@@H](CCC(N)=O)C(=O)N[C@@H](CC(C)C)C(=O)N[C@@H](CCCNC(=N)N)C(=O)N[C@H](C(=O)N[C@@H](CCCNC(=N)N)C(N)=O)CSCCC3=O

Starred links: 1 amine or outer side, 2 acyl side, 3 side chain; linkers in the order of their positions; H or OH if unused. Positions of bridges follow the written chain, without caps; N, C: chain ends. Non-standard residues stand in square brackets, D forms with d. No end group written: not given here. TATA = O=C(CC[*:1])N1CN(C(=O)CC[*:2])CN(C(=O)CC[*:3])C1; Phe(4-guanidino) = N=C(N)Nc1ccc(C[C@H](N)C(=O)O)cc1; hArg = N=C(N)NCCCC[C@H](N)C(=O)O; Agb = N=C(N)NCC[C@H](N)C(=O)O; hLys = NCCCCC[C@H](N)C(=O)O

Usually Ki stands for a dissociation constant, usually derived from enzyme kinetics or from competition with a known ligand. The low end stands for tighter binding, the high end for weaker binding.

One test deals with T1, human β-FXIIa (HFXIIAB; Molecular Innovations) (human, UniProt P00748 354-362; P00748 373-615).
T1 chain 1: NGPLSCGQR
T1 chain 2: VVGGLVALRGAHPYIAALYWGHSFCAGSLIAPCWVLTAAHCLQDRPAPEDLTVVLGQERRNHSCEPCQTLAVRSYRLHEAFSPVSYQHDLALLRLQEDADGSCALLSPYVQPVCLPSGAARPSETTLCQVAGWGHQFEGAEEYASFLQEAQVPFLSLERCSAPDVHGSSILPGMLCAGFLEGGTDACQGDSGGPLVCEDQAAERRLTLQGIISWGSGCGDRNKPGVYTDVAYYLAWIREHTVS
Description: enzyme inhibition.
As to B1, affinity was put at a Ki of 199 nM.
On the same count and under the same terms, the result for RCFRLPCRQMRCR [Methionine (27), Leu10] reads 364 nM.
Same read-out and setting: with RCFRLPCRQVRCR [Valine (25), Leu10] the figure was 830 nM.
RCFRLPCRQARCR [Alanine (30), Leu10] registered an inhibition constant (Ki) of 2660 nM.

The next test deals with T1, human β-FXIIa (HFXIIAB; Molecular …). The test is described as follows: enzyme inhibition. This is another data set of the same source.
In turn, RCF[hLys]LPCRQLRCRW-NH2 (linker 2-7-12 via TATA) [peptide 38 (peptide 2, Arg4 to homolysine)] registered an inhibition constant Ki of 131 nM.
On the same count and under the same terms, the result for B2 reads 976 nM; that for RCF[hArg]LPCRQLRCRW-NH2 (linker 2-7-12 via TATA) [peptide 39 (peptide 2, Arg4 to homoarginine)], 181 nM; that for H-RCF[Agb]LPCRQLRCRW-NH2 (linker 2-7-12 via TATA) [peptide 40 (peptide 2, Arg4 to norarginine)], 397 nM.

Another test shares this target. The test is described as follows: enzyme inhibition. This is another data set of the same source.
Take B3: the affinity corresponds to a Ki of 336 nM.
On the same count and under the same terms, the result for B4 reads 413 nM.
Molecule B5 returned an inhibitory constant (Ki) of 82 nM.
Still for that read-out and setting: with B6 the figure was 2010 nM.

The next test shares this target. The test is described as follows: enzyme inhibition. This is another data set of the same source.
B7 yielded a Ki of 287 nM.
On the same count and under the same terms, with B8 the figure was 177 nM; with B9, 18.5 nM; with B10, 231 nM.
